Experiment [1] deals with T1, Human Fas (CD95) on the cell surface (human, UniProt P25445 26-335).
T1 construct: also called APO-1; TNR6_Human
T1 sequence: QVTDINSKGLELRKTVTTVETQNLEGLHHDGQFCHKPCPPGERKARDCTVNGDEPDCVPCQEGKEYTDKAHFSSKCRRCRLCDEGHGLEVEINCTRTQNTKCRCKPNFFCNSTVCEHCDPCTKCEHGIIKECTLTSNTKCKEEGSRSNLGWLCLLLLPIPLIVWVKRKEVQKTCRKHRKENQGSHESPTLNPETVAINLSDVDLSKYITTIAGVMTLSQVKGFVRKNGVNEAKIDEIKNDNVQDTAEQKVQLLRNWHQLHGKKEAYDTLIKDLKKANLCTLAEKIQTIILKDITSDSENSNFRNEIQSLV
Description: flow cytometry on the human B cell line SKW6.4, FITC anti-human IgG secondary, MFI after subtraction of the control human γ1 staining.

Experiment [2] has as its target T2, Rhesus macaque Fas on the cell surface (rhesus macaque, UniProt Q9BDP2 26-333).
T2 construct: whole, on cells
T2 sequence (looked up): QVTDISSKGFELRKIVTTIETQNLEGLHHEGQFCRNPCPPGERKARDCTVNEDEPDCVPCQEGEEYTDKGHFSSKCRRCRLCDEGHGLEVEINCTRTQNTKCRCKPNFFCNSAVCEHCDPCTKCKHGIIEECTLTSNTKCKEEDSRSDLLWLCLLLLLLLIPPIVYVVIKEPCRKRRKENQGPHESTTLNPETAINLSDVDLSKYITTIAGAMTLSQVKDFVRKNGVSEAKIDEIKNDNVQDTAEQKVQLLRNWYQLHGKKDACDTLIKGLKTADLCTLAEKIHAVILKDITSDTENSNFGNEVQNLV
Put plainly: flow cytometry histograms (FL1-H) on rhesus macaque cells (cell type not printed on the sheet), FITC anti-human kappa or FITC anti-human IgG secondary. An excerpt: (§1) Reactivity of F45D9-γ1 or F45D9-γ4 mAb with Fas molecules of various species was initially screened using primary blood cells or lymphocytes cell lines. The binding of F45D9-γ1 or F45D9-γ4 mAb was explored by immunofluoresce staining and flow cytometry analysis, in human PBMC, purified human resting T cells, activated human T cells, peripheral blood lymphocytes (PBL) derived from BALE/c mice, rat, dog and pig, and in B cell lines or PBL derived from common marmoset, cynomolgus macaque, olive baboon, rhesus macaque and chimpanzee. Resting and activated human T cells were prepared as described in Example 7. B cells lines from monkeys were obtained from Biomedical Primate Research Center (Rijswijk, The Netherlands), and were cultured in RPMI 1640 medium supplemented with 2 mM glutamax, 100 UI/mL penicillin, 100 μg/mL streptomycin and 10% fetal bovine serum, at 37° C. and 5% CO₂. After washing in PBS cells (0.2−0.4×10⁶ cells/well) were incubated in staining buffer (PBS/1% FBS) containing F45D9-γ1 or human IgG control antibodies (10-20 ug/ml) in a 96-well U-bottom plate for 30 min on ice, in a 100 ul/well volume. Cells were then washed once with staining buffer, and further incubated for 30 min on ice with 1:30 dilution of FITC-conjugated rabbit F(ab′)₂ anti-human kappa (DakoCytomation Cat. F0434) or FITC-conjugated rabbit F(ab′)₂ anti-human IgG (DakoCytomation Cat. F0056). […]
(In general: In flow cytometry, cells or beads pass a laser one at a time.)

Experiment [3] deals with T3, Recombinant human soluble Fas receptor (PeproTech, Cat. 310-20) (human, UniProt P25445 17-173).
T3 construct: Bought soluble form; also called sFas; rFas
T3 sequence (looked up): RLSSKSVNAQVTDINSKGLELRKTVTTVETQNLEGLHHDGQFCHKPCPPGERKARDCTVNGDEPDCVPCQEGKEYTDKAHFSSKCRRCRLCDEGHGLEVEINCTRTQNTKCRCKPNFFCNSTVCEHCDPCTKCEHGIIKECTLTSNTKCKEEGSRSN
Put plainly: SPR (BIAcore 3000), soluble Fas immobilized on CM5 chip, antibody as analyte, bivalent analyte fit. Here is the method:
The interaction of F45D9 mAb's (γ-γ1 and γ4-isotypes) with immobilized soluble human Fas receptor was monitored by surface plasmon resonance detection using a BIAcore 3000 instrument. Recombinant human soluble Fas receptor (srFas) (PeproTech, cat. 310-20) was immobilized (concentration of 5 ug/ml in immobilization buffer: 10 mM sodium acetate pH 5.0) onto a CM5 sensor chip (BIAcore BR-1001-14) using an Amine Coupling kit (BIAcore, Cat. BR-1000-50), at a surface density of […] resonance units (RU). Deactivation of excess reactive groups on the chip surface was done by adding 1.0 M ethalonamine hydrochloride (pH 8.5). F45D9 mAb's-γ1 mAb were passed over the surface in equilibrium binding experiments at concentrations ranging from […] at a flow rate of 30 ul/min. Dilutions and binding experiments were conducted in 0.01 M HEPES (pH 7.4), 0.15 M NaCl, 3 mM EDTA, and 0.005% P-20 (BIAcore surfactant, BR-1001-88). Between each cycle 100 mM HCl was used to regenerate the surfaces at a flow rate 30 ul/min. KA and KD of F45D9 mAb's were-γ1 mAb was determined by fitting bivalentusing BIAcore models (BIAevaluation).
On the technique in general: SPR reads the build-up and loss of mass on a sensor chip optically.

Experiment [4] addresses T4, Chimpanzee Fas on the cell surface (chimpanzee, UniProt K6ZIR5 26-335).
T4 construct: also called Fas on chimpanzee B cell line
T4 sequence: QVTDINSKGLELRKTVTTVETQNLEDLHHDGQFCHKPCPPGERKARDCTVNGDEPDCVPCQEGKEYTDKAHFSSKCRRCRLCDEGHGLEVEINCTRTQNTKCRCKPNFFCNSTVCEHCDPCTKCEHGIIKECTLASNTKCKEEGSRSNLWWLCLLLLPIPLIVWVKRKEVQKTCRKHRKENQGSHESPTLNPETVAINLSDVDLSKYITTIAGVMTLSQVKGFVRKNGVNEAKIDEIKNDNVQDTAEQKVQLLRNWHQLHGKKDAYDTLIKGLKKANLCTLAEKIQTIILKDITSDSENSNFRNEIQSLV
Put plainly: flow cytometry histograms (FL1-H) on chimpanzee cells (cell type not printed on the sheet), FITC anti-human IgG secondary.
From the text: as §1

B1: F45D9-γ1 mAb (recombinant human mAb T17/B2-1G4, gamma-1 isotype) (antibody, V domains shown)
VH: QVQLQQWGAGLLKPSETLSLICAVYGGSFSTYYWTWIRQPPGKGLEWIGEINHRGTTNYSPSLKSRVTISVDTSKNHISLNLTSVTAADTALYYCARGLLWIGEGDYGLDVWGQGTTVTVSS
VL: DIQMTQSPSSLSASVGDRVTITCRASQGIRRWLAWYQQKPEKAPKSLIYAASSLQSGVPSRFSGSGSGTDFTLTISSLQPEDFATYYCQQYNSYPYTFGQGTKLEIKR
notes: Whole human IgG1 (γ1fa allotype) with human kappa light chain, made in CHO DG44 cells; also called IgG1; T17/L18/B2-1G4
As a reminder, the EC50 (read off the curve) is the midpoint of the concentration-response curve. For B1, the concentration giving a half-maximal response (EC50 (read off the curve)) in experiment [1] is roughly 0.8 µg/mL. The values for the binding result in experiment [2] and in experiment [4] were “no binding” and “binds”, respectively. Also, in experiment [3], the Kd is 0.0411 nM.
